Test results: patent publication US20240216513A1, “FATTY ACID-BIFUNCTIONAL DEGRADER CONJUGATES AND THEIR METHODS OF USE” (Novartis AG, priority 2021, published 2024)
Marks after values point to notes of the source that are not given here.

Legend:
[1] = BTK FAC plasma stability assay, cyno plasma; type: in vitro ADME, cynomolgus monkey
[2] = BTK FAC plasma stability assay, rat plasma; type: in vitro ADME; conditions: for Plasma stability (h) rat: incubation to 24 h
How it was run: (§1)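 Stability in PBS buffer or EDTA-treated plasma is followed over 24 h at 38 °C with shaking. Protein precipitation with acetonitrile (glyburide 0.2 µM as internal standard) stops each timepoint, and LC-MS/MS gives analyte-to-standard area ratios.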

[3] = BTK FAC plasma stability assay, PBS buffer arm; type: physicochemical; conditions: for Plasma stability (h) PBS: incubation to 24 h
How it was run: as §1

BTK C481S = molecular target: T1, BTK C481S (Homo sapiens, UniProt Q06187, C481S); assay: PD screen in TMD8 BTK C481S mutant tumor-bearing mice, BTK levels and compound concentrations in blood and tumor; type: in vivo, mouse; conditions: for Duration of BTK degradation in mouse ≥90%: 25 umol/kg
T1 construct: endogenous in cells; host or cells: TMD8 BTK C481S mutant tumour xenografts in mice
Protocol: All animal studies were conducted in accordance with ethics and procedures covered by permit nos. BS-1975 issued by the Kantonales Veterinäramt Basel-Stadt and in strict adherence to guidelines of the Eidgenössisches Tierschutzgesetz and the Eidgenössische Tierschutzverordnung, Switzerland. All animals had access to food and water ad libitum and were identified with transponders. They were housed in a specific pathogen-free facility with a 12-h light/12-h dark cycle. For PD screen experiments in TMD8 BTK C481S mutant tumor-bearing mice, FAC was injected once. Animals were randomized into groups of 2 and tissue samples collected at day 0, 4, 7 and in some studies day 10 as well. Blood samples were collected and tumors were excised, weighed, frozen in liquid nitrogen and cryogenic dry pulverized with the CryoPrep™ system (model CP-02, Covaris). Concentrations of compounds in blood and tumors were determined by UPLC/MS-MS and BTK levels were analyzed by Meso Scale Discovery.

[4] = BTK FAC plasma stability assay, dog plasma; type: in vitro ADME
[5] = BTK FAC plasma stability assay, mouse plasma; type: in vitro ADME; conditions: for Plasma stability (h) mouse: incubation to 24 h
How it was run: as §1

T1 sequence (Q06187 whole entry C481S): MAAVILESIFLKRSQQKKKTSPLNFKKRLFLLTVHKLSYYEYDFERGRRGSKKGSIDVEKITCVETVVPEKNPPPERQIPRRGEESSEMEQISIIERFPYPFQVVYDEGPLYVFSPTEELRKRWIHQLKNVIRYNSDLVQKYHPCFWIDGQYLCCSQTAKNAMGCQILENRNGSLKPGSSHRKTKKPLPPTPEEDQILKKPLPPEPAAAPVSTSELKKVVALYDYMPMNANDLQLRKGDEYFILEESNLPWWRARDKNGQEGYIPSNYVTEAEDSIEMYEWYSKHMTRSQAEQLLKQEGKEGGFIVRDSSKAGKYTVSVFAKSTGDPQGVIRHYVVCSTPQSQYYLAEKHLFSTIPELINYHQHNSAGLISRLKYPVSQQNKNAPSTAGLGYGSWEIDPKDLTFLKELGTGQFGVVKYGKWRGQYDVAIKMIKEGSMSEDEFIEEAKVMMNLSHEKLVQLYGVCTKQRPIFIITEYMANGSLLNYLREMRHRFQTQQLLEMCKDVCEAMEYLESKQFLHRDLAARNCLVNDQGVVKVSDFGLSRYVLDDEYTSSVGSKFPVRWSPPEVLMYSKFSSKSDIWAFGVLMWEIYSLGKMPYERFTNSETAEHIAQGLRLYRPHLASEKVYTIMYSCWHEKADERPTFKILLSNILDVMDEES

Structure (SMILES) | Plasma stability (h) cyno [1] | % Release of degrader after 24 h cyno ([1]; 24 h) | % Release of degrader after 24 h rat [2] | Plasma stability (h) rat [2] | % Release of degrader after 24 h PBS [3] | Plasma stability (h) PBS [3] | Duration of BTK degradation in mouse ≥90% (days) (BTK C481S; i.v., 50 umol/kg) | Plasma stability (h) dog [4] | % Release of degrader after 24 h dog [4] | % Release of degrader after 24 h mouse [5] | Plasma stability (h) mouse [5] | Duration of BTK degradation in mouse ≥90% (BTK C481S; i.v.) | Duration of BTK degradation in mouse ≥90% (BTK C481S; s.c.)
CCCCCCCCCCCN(C(=O)CCCCCCCCCC(=O)O)C(CCC(=O)NCCOCCOCCOCCOCCOCCOCCOCCOCCOCCOCCOCCOCCC(=O)N[C@@H](C)CC(=O)OC(C)(C)c1ccc(C(=O)Nc2cc(F)cc(-c3ncnc4[nH]c(-c5ccc(CCN6CCC7(CC6)CCN(C(=O)c6ccc(OC)c(N8CCC(=O)NC8=O)c6)CC7)cc5)cc34)c2C)c(F)c1)C(=O)O (stereo partly drawn) [Example A20, (6S)-51-Carboxy-2-(4-((3-(6-(4-(2-(9-(3-(2,4-dioxotetrahydropyrimidin-1(2H)-yl)-4-methoxybenzoyl)-3,9-diazaspiro[5.5]undecan-3-yl)ethyl)phenyl)-7H-pyrrolo[2,3-d]pyrimidin-4-yl)-5-fluoro-2-methylphenyl)carbamoyl)-3-fluorophenyl)-2,6-dimethyl-4,8,48,53-tetraoxo-52-undecyl-3,11,14,17,20,23,26,29,32,35,38,41,44-tridecaoxa-7,47,52-triazatrihexacontan-63-oic acid] | >48 h | 0.2% | 0.3% | >48 h | 0.2% | >48 h | 7* days | >48 h | 0.4% | 0.5% | >48 h |  | 
CCCCCCCCCCCN(C(=O)CCCCCCCCCC(=O)O)C(CCC(=O)NCCOCCOCCOCCOCCOCCOCCOCCOCCOCCOCCOCCOCCC(=O)N[C@@H](C)C(=O)OC(C)(C)c1ccc(C(=O)Nc2cc(F)cc(-c3ncnc4[nH]c(-c5ccc(CCN6CCC7(CC6)CCN(C(=O)c6ccc(OC)c(N8CCC(=O)NC8=O)c6)CC7)cc5)cc34)c2C)c(F)c1)C(=O)O (stereo partly drawn) [Example A16, (5S)-50-Carboxy-2-(4-((3-(6-(4-(2-(9-(3-(2,4-dioxotetrahydropyrimidin-1(2H)-yl)-4-methoxybenzoyl)-3,9-diazaspiro[5.5]undecan-3-yl)ethyl)phenyl)-7H-pyrrolo[2,3-d]pyrimidin-4-yl)-5-fluoro-2-methylphenyl)carbamoyl)-3-fluorophenyl)-2,5-dimethyl-4,7,47,52-tetraoxo-51-undecyl-3,10,13,16,19,22,25,28,31,34,37,40,43-tridecaoxa-6,46,51-triazadohexacontan-62-oic acid] |  |  | 11% | >48 h | 2% | >48 h |  | 31.2 h | 5% | 1.9% | >48 h | 4 days | 
CCCCCCCCCCCN(C(=O)CCCCCCCCCC(=O)O)C(CCC(=O)NCCOCCOCCOCCOCCOCCOCCOCCOCCOCCOCCOCCOCCC(=O)NCC(=O)NCN(C(=O)c1ccc(C(C)(C)O)cc1F)c1cc(F)cc(-c2ncnc3[nH]c(-c4ccc(CCN5CCC6(CC5)CCN(C(=O)c5ccc(OC)c(N7CCC(=O)NC7=O)c5)CC6)cc4)cc23)c1C)C(=O)O (stereo not drawn) [Example A36, 51-Carboxy-2-(3-(6-(4-(2-(9-(3-(2,4-dioxotetrahydropyrimidin-1(2H)-yl)-4-methoxybenzoyl)-3,9-diazaspiro[5.5]undecan-3-yl)ethyl)phenyl)-7H-pyrrolo[2,3-d]pyrimidin-4-yl)-5-fluoro-2-methylphenyl)-1-(2-fluoro-4-(2-hydroxypropan-2-yl)phenyl)-1,5,8,48,53-pentaoxo-52-undecyl-11,14,17,20,23,26,29,32,35,38,41,44-dodecaoxa-2,4,7,47,52-pentaazatrihexacontan-63-oic acid] |  |  | 0% | >48 h | 0% | >48 h |  | >48 h | 0% | 0.7% | 38.6 h | 10 days | 
CCCCCCCCCCCN(C(=O)CCCCCCCCCC(=O)O)C(CCC(=O)NCCOCCOCCOCCOCCOCCOCCOCCOCCOCCOCCOCCOCCC(=O)N[C@H](C)C(=O)OC(C)(C)c1ccc(C(=O)Nc2cc(F)cc(-c3ncnc4[nH]c(-c5ccc(CCN6CCC7(CC6)CCN(C(=O)c6ccc(OC)c(N8CCC(=O)NC8=O)c6)CC7)cc5)cc34)c2C)c(F)c1)C(=O)O (stereo partly drawn) [Example A17, (5R)-50-Carboxy-2-(4-((3-(6-(4-(2-(9-(3-(2,4-dioxotetrahydropyrimidin-1(2H)-yl)-4-methoxybenzoyl)-3,9-diazaspiro[5.5]undecan-3-yl)ethyl)phenyl)-7H-pyrrolo[2,3-d]pyrimidin-4-yl)-5-fluoro-2-methylphenyl)carbamoyl)-3-fluorophenyl)-2,5-dimethyl-4,7,47,52-tetraoxo-51-undecyl-3,10,13,16,19,22,25,28,31,34,37,40,43-tridecaoxa-6,46,51-triazadohexacontan-62-oic acid] |  |  | 2.5% | >48 h | 1.2% | >48 h |  | 33.3 h | 3.7% | 2.3% | >48 h | 4 days | 
CCCCCCCCCCCN(C(=O)CCCCCCCCCC(=O)O)C(CCC(=O)NCCOCCOCCOCCOCCOCCOCCOCCOCCOCCOCCOCCOCCC(=O)NCc1cc(C(=O)OC(C)(C)c2ccc(C(=O)Nc3cc(F)cc(-c4ncnc5[nH]c(-c6ccc(CCN7CCC8(CC7)CCN(C(=O)c7ccc(OC)c(N9CCC(=O)NC9=O)c7)CC8)cc6)cc45)c3C)c(F)c2)ccn1)C(=O)O (stereo not drawn) [Example A26, 46-Carboxy-1-(4-(((2-(4-((3-(6-(4-(2-(9-(3-(2,4-dioxotetrahydropyrimidin-1(2H)-yl)-4-methoxybenzoyl)-3,9-diazaspiro[5.5]undecan-3-yl)ethyl)phenyl)-7H-pyrrolo[2,3-d]pyrimidin-4-yl)-5-fluoro-2-methylphenyl)carbamoyl)-3-fluorophenyl)propan-2-yl)oxy)carbonyl)pyridin-2-yl)-3,43,48-trioxo-47-undecyl-6,9,12,15,18,21,24,27,30,33,36,39-dodecaoxa-2,42,47-triazaoctapentacontan-58-oic acid] |  |  | 7.6% | >48 h | 7% | >48 h |  | 39.2 h | 10.9% | 20.4% | 30.5 h | 7 days | 
CCCCCCCCCCCN(C(=O)CCCCCCCCCC(=O)O)[C@@H](CCC(=O)NCCOCCOCCOCCOCCOCCOCCOCCOCCOCCOCCOCCOCCC(=O)N(CCC(=O)OC(C)(C)c1ccc(C(=O)Nc2cc(F)cc(-c3ncnc4[nH]c(-c5ccc(CCN6CCC7(CC6)CCN(C(=O)c6ccc(OC)c(N8CCC(=O)NC8=O)c6)CC7)cc5)cc34)c2C)c(F)c1)CC(=O)O)C(=O)O [Example A24, (S)-2-(3-((2-(4-((3-(6-(4-(2-(9-(3-(2,4-Dioxotetrahydropyrimidin-1(2H)-yl)-4-methoxybenzoyl)-3,9-diazaspiro[5.5]undecan-3-yl)ethyl)phenyl)-7H-pyrrolo[2,3-d]pyrimidin-4-yl)-5-fluoro-2-methylphenyl)carbamoyl)-3-fluorophenyl)propan-2-yl)oxy)-3-oxopropyl)-3,43,48-trioxo-47-undecyl-6,9,12,15,18,21,24,27,30,33,36,39-dodecaoxa-2,42,47-triazaheptapentacontane-1,46,57-tricarboxylic acid] |  |  | 7.2% | >48 h | 2.8% | >48 h |  | >48 h | 5.9% | 7.4% | >48 h | 10 days | 10 days
